# Results reported in patent US20080176263.
# Experiments:
# [1] = test system: TNO211 peptide (DABCYL-GABA-Pro-Gln-Gly-Leu-Glu(EDANS)-Ala-Lys-NH2)
# [2] = test system: T1, Peptide #15 (Biotin-aAbu-Pro-Gln-Gly-Leu-Lys(5FAM)-Ala-Lys-NH2)
# T1 sequence: PQGLKAK
# [3] = test system: Anaspec, Inc.'s FRET peptide XV (QXL520-y-Abu-Pro-Gln-Gly-Leu-Dab(5-FAM)-Ala-Lys-NH)
# Sequence of Recombinant active pure MMP-9 from Calbiochem (Cat# PF024; 83 kDa form) (chain, as listed by the source): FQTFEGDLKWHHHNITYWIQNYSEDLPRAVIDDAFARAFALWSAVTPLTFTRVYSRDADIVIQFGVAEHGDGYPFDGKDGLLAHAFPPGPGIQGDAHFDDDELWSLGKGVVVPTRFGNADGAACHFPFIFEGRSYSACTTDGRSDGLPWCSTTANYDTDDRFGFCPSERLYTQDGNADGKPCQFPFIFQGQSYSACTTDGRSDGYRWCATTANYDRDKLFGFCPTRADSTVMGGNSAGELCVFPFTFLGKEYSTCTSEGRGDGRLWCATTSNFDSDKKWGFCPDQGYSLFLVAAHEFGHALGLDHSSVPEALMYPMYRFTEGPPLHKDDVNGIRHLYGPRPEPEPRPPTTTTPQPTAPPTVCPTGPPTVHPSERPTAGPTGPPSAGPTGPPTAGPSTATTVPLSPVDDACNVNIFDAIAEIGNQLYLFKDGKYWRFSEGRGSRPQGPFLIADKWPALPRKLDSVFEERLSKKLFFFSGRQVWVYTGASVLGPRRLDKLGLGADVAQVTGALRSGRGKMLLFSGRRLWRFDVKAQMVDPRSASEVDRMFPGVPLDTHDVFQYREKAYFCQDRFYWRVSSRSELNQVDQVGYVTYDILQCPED
# Sequence of MMP-9 (chain, as listed by the source): as above
substance,measurement,setting,value
MMP-9,"protease activity (fluorescence from cleavage of substrate TNO211), relative to pronase",[1],28±3%
same,substrate specificity in the fluorogenic cleavage assay,[1],The substrate exhibited greater specificity for MMP-9 within the initial 30 minutes of the assay
elastase,cleavage of the dye-labelled immobilized substrate (color generation),RH substrate,none of the enzyme preparations were successful in cleaving the RH substrate
clostridial collagenase,"protease activity (fluorescence from cleavage of substrate TNO211), relative to pronase",[1],2±1%
trypsin,cleavage of the dye-labelled immobilized substrate (color generation),RH substrate,none of the enzyme preparations were successful in cleaving the RH substrate
dispase,cleavage of the dye-labelled immobilized substrate (color generation),RH substrate,none of the enzyme preparations were successful in cleaving the RH substrate
pronase,fluorescence left after streptavidin agarose removal of uncleaved biotinylated peptide,[2],there was enough of a difference between the negative control and the other samples to stop at this point
same,cleavage of the dye-labelled immobilized substrate (color generation),RH substrate,none of the enzyme preparations were successful in cleaving the RH substrate
same,visible color from cleavage of the dye-labelled immobilized substrate,Substrate AA,AA substrate reacted with pronase and proteinase K did produce a visible color within 2.5 h at 37 °C Pronase generated the most noticeable color change
same,time to completion of the cleavage reaction at 1 ug/ml protease,[1],the pronase reaction reached completion within 13 minutes
same,visual detection limit of protease by fluorescence of cleaved substrate,[1],125 ng pronase was detected within 10 minutes
Recombinant active pure MMP-9 from Calbiochem (Cat# PF024; 83 kDa form),time to a visible fluorescent signal from cleavage of the FRET peptide,[3],capable of generating a signal within 10 minutes for pure MMP-9 activity
same,visually detectable fluorescent signal in MMP-9 spiked fetal bovine serum,[3],the spiked FBS generated as slightly detectable signal by 10 min with the 5-FAM-based peptide and an easily detectable signal by 30 min
